Measured values as given in IntAct's records for PubMed 19103591.

B1: Anti-sigma-E factor RseA (Escherichia coli (strain K12)), P0AFX7 (parent)
chain: MQKEQLSALMDGETLDSELLNELAHNPEMQKTWESYHLIRDSMRGDTPEVLHFDISSRVMAAIEEEPVRQPATLIPEAQPAPHQWQKMPFWQKVRPWAAQLTQMGVAACVSLAVIVGVQHYNGQSETSQQPETPVFNTLPMMGKASPVSLGVPSEATANNGQQQQVQEQRRRINAMLQDYELQRRLHSEQLQFEQAQTQQAAVQVPGIQTLGTQSQ
partner: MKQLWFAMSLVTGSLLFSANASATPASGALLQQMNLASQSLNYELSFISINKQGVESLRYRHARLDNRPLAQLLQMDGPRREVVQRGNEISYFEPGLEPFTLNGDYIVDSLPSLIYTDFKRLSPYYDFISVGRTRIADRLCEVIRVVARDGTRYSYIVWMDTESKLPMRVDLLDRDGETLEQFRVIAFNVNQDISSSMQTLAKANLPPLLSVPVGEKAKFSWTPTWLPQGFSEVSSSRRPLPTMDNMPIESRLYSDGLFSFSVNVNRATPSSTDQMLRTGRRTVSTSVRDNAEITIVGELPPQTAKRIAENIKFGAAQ
B2: Sigma-E factor regulatory protein RseB (Escherichia coli (strain K12)), P0AFX9 (parent)
chain: B1 partner
partner: B1 chain

Variants of: B1
Details: with rseb_ecoli rseB

Variant	effect of a mutation on the interaction
MQKEQLSALMDGETLDSELLNELAHNPEMQKTWESYHLIRDSMRGDTPEVLHFDISSRVMAAIEEEPVRQPATLIPEAQPAPHQWQKMPFWQKVRPWAAQLTQMGVAACVSLAVIVGVQHYNGQSETSQQPETPVFNTLPMMGKASPVSLGVPSEATANNGQQQQVQEQRRRINAMLADYELQRRLHSEQLQFEQAQTQQAAVQVPGIQTLGTQSQ [Q178A]	decreasing interaction
MQKEQLSALMDGETLDSELLNELAHNPEMQKTWESYHLIRDSMRGDTPEVLHFDISSRVMAAIEEEPVRQPATLIPEAQPAPHQWQKMPFWQKVRPWAAQLTQMGVAACVSLAVIVGVQHYNGQSETSQQPETPVFNTLPMMGKASPVSLGVPSEATANNGQQQQVQEQRRRIAAMLQDYELQRRLHSEQLQFEQAQTQQAAVQVPGIQTLGTQSQ [N174A]	decreasing interaction
MQKEQLSALMDGETLDSELLNELAHNPEMQKTWESYHLIRDSMRGDTPEVLHFDISSRVMAAIEEEPVRQPATLIPEAQPAPHQWQKMPFWQKVRPWAAQLTQMGVAACVSLAVIVGVQHYNGQSETSQQPETPVFNTLPMMGKASPVSLGVPSEATANNGQQQQVQEQRRRINAMLQDYALQRRLHSEQLQFEQAQTQQAAVQVPGIQTLGTQSQ [E181A]	decreasing interaction
MQKEQLSALMDGETLDSELLNELAHNPEMQKTWESYHLIRDSMRGDTPEVLHFDISSRVMAAIEEEPVRQPATLIPEAQPAPHQWQKMPFWQKVRPWAAQLTQMGVAACVSLAVIVGVQHYNGQSETSQQPETPVFNTLPMMGKASPVSLGVPSEATANNGQQQQVQEQRRRINAMLQAYELQRRLHSEQLQFEQAQTQQAAVQVPGIQTLGTQSQ [D179A]	decreasing interaction
MQKEQLSALMDGETLDSELLNELAHNPEMQKTWESYHLIRDSMRGDTPEVLHFDISSRVMAAIEEEPVRQPATLIPEAQPAPHQWQKMPFWQKVRPWAAQLTQMGVAACVSLAVIVGVQHYNGQSETSQQPETPVFNTLPMMGKASPVSLGVPSEATANNGQQQQVQEQRRRINAMLQDAELQRRLHSEQLQFEQAQTQQAAVQVPGIQTLGTQSQ [Y180A]	decreasing interaction

Other lines, results leading:

effect of a mutation on the interaction	Variant
decreasing interaction	MQKEQLSALMDGETLDSELLNELAHNPEMQKTWESYHLIRDSMRGDTPEVLHFDISSRVMAAIEEEPVRQPATLIPEAQPAPHQWQKMPFWQKVRPWAAQLTQMGVAACVSLAVIVGVQHYNGQSETSQQPETPVFNTLPMMGKASPVSLGVPSEATANNGQQQQVQEQRRRINAMLQDYELQRRLASEQLQFEQAQTQQAAVQVPGIQTLGTQSQ [H187A]
decreasing interaction	MQKEQLSALMDGETLDSELLNELAHNPEMQKTWESYHLIRDSMRGDTPEVLHFDISSRVMAAIEEEPVRQPATLIPEAQPAPHQWQKMPFWQKVRPWAAQLTQMGVAACVSLAVIVGVQHYNGQSETSQQPETPVFNTLPMMGKASPVSLGVPSEATANNGQQQQVQEQRRRINAMLQDYELARRLHSEQLQFEQAQTQQAAVQVPGIQTLGTQSQ [Q183A]
decreasing interaction	MQKEQLSALMDGETLDSELLNELAHNPEMQKTWESYHLIRDSMRGDTPEVLHFDISSRVMAAIEEEPVRQPATLIPEAQPAPHQWQKMPFWQKVRPWAAQLTQMGVAACVSLAVIVGVQHYNGQSETSQQPETPVFNTLPMMGKASPVSLGVPSEATANNGQQQQVQEQRRRINAMLQDYELQRRLHAEQLQFEQAQTQQAAVQVPGIQTLGTQSQ [S188A]
decreasing interaction	MQKEQLSALMDGETLDSELLNELAHNPEMQKTWESYHLIRDSMRGDTPEVLHFDISSRVMAAIEEEPVRQPATLIPEAQPAPHQWQKMPFWQKVRPWAAQLTQMGVAACVSLAVIVGVQHYNGQSETSQQPETPVFNTLPMMGKASPVSLGVPSEATANNGQQQQVQEQRRRINAMLQDYELQRALHSEQLQFEQAQTQQAAVQVPGIQTLGTQSQ [R185A]

Variants of: B2
Details: with rsea_ecoli rseA

effect of a mutation on the interaction	Variant
decreasing interaction	MKQLWFAMSLVTGSLLFSANASATPASGALLQQMNLASQSLNYELSFISINKQGVESLRYRHARLDNRPLAQLLQMDGPRREVVQRGNEISYFEPGLEPFTLNGDYIVDSLPSLIYTDFKRLSPYYDFISVGRTRIADRLCEVIRVVARDGTRYSYIVWMDTESKLPMRVDLLDRDGETLAQFRVIAFNVNQDISSSMQTLAKANLPPLLSVPVGEKAKFSWTPTWLPQGFSEVSSSRRPLPTMDNMPIESRLYSDGLFSFSVNVNRATPSSTDQMLRTGRRTVSTSVRDNAEITIVGELPPQTAKRIAENIKFGAAQ [E181A]
decreasing interaction	MKQLWFAMSLVTGSLLFSANASATPASGALLQQMNLASQSLNYELSFISINKQGVESLRYRHARLDNRPLAQLLQMDGPRREVVQRGNEISYFEPGLEPFTLNGDYIVDSLPSLIYTDFKRLSPYYDFISVGRTRIADRLCEVIRVVARDGTRYSYIVWMDTESKLPMRVDLLARDGETLEQFRVIAFNVNQDISSSMQTLAKANLPPLLSVPVGEKAKFSWTPTWLPQGFSEVSSSRRPLPTMDNMPIESRLYSDGLFSFSVNVNRATPSSTDQMLRTGRRTVSTSVRDNAEITIVGELPPQTAKRIAENIKFGAAQ [D174A]

Variants of: B2
Details: with rsea_ecoli rseA
Remark: another data set of the same source

Variant	effect of a mutation on the interaction
MKQLWFAMSLVTGSLLFSANASATPASGALLQQMNLASQSLNYELSFISINKQGVESLRYRHARLDNRPLAQLLQMDGPRREVVQRGNEISYFEPGLEPFTLNGDYIVDSLPSLIYTDFKRLSPYYDFISVGRTRIADRLCEVIRVVARDGTRYSYIVWMDTESKLPMRVALLDRDGETLEQFRVIAFNVNQDISSSMQTLAKANLPPLLSVPVGEKAKFSWTPTWLPQGFSEVSSSRRPLPTMDNMPIESRLYSDGLFSFSVNVNRATPSSTDQMLRTGRRTVSTSVRDNAEITIVGELPPQTAKRIAENIKFGAAQ [D171A]	decreasing interaction
MKQLWFAMSLVTGSLLFSANASATPASGALLQQMNLASQSLNYELSFISINKQGVESLRYRHARLDNRPLAQLLQMDGPRREVVQRGNEISYFEPGLEPFTLNGDYIVDSLPSLIYTDFKRLSPYYDFISVGRTRIADRLCEVIRVVARDGTRYSYIVWMDTESKLPMRVDLLDRAGETLEQFRVIAFNVNQDISSSMQTLAKANLPPLLSVPVGEKAKFSWTPTWLPQGFSEVSSSRRPLPTMDNMPIESRLYSDGLFSFSVNVNRATPSSTDQMLRTGRRTVSTSVRDNAEITIVGELPPQTAKRIAENIKFGAAQ [D176A]	decreasing interaction
MKQLWFAMSLVTGSLLFSANASATPASGALLQQMNLASQSLNYELSFISINKQGVESLRYRHARLDNRPLAQLLQMDGPRREVVQRGNEISYFEPGLEPFTLNGDYIVDSLPSLIYTDFKRLSPYYDFISVGRTRIADRLCEVIRVVARDGTRYSYIVWMDTESKLPMRVDLLDRDGATLEQFRVIAFNVNQDISSSMQTLAKANLPPLLSVPVGEKAKFSWTPTWLPQGFSEVSSSRRPLPTMDNMPIESRLYSDGLFSFSVNVNRATPSSTDQMLRTGRRTVSTSVRDNAEITIVGELPPQTAKRIAENIKFGAAQ [E178A]	decreasing interaction

Results, then the variant that gave them:

effect of a mutation on the interaction	Variant
decreasing interaction	MKQLWFAMSLVTGSLLFSANASATPASGALLQQMNLASQSLNYELSFISINKQGVESLRYRHARLDNRPLAQLLQMDGPRREVVQRGNEISYFEPGLEPFTLNGDYIVDSLPSLIYTDFKRLSPYYDFISVGRTRIADRLCEVIRVVARDGTRYSYIVWMDTESKLPMRVDLLDRDGETLEQFRVIAFNVNQDISSSMQTLAKANLPPLLSVPVGEKAKFSWTPTWLPQGFSEVSSSAAPLPTMDNMPIESRLYSDGLFSFSVNVNRATPSSTDQMLRTGRRTVSTSVRDNAEITIVGELPPQTAKRIAENIKFGAAQ [R238A;R239A]
decreasing interaction	MKQLWFAMSLVTGSLLFSANASATPASGALLQQMNLASQSLNYELSFISINKQGVESLRYRHARLDNRPLAQLLQMDGPRREVVQRGNEISYFEPGLEPFTLNGDYIVDSLPSLIYTDFKRLSPYYDFISVGRTRIADRLCEVIRVVARDGTRYSYIVWMDTESKLPMRVDLLDRDGETLEQFRVIAFNVNQDISSSMQTLAKANLPPLLSVPVGEKAKFSWTPTWLPQGFSEVSSSRRPLPTMDNMPIASRLYSDGLFSFSVNVNRATPSSTDQMLRTGRRTVSTSVRDNAEITIVGELPPQTAKRIAENIKFGAAQ [E250A]
decreasing interaction	MKQLWFAMSLVTGSLLFSANASATPASGALLQQMNLASQSLNYELSFISINKQGVESLRYRHARLDNRPLAQLLQMDGPRREVVQRGNEISYFEPGLEPFTLNGDYIVDSLPSLIYTDFKRLSPYYDFISVGRTRIADRLCEVIRVVARDGTRYSYIVWMDTESKLPMRVDLLDRDGETLEQFRVIAFNVNQDISSSMQTLAKANLPPLLSVPVGEKAKFSWTPTWLPQGFSEVSSSRRPLPTMAAMPAASRLYSDGLFSFSVNVNRATPSSTDQMLRTGRRTVSTSVRDNAEITIVGELPPQTAKRIAENIKFGAAQ [D245A;N246A;I249A;E250A]
decreasing interaction	MKQLWFAMSLVTGSLLFSANASATPASGALLQQMNLASQSLNYELSFISINKQGVESLRYRHARLDNRPLAQLLQMDGPRREVVQRGNEISYFEPGLEPFTLNGDYIVDSLPSLIYTDFKRLSPYYDFISVGRTRIADRLCEVIRVVARDGTRYSYIVWMDTESKLPMRVDLLDRDGETLEAFRVIAFNVNQDISSSMQTLAKANLPPLLSVPVGEKAKFSWTPTWLPQGFSEVSSSRRPLPTMDNMPIESRLYSDGLFSFSVNVNRATPSSTDQMLRTGRRTVSTSVRDNAEITIVGELPPQTAKRIAENIKFGAAQ [Q182A]
decreasing interaction	MKQLWFAMSLVTGSLLFSANASATPASGALLQQMNLASQSLNYELSFISINKQGVESLRYRHARLDNRPLAQLLQMDGPRREVVQRGNEISYFEPGLEPFTLNGDYIVDSLPSLIYTDFKRLSPYYDFISVGRTRIADRLCEVIRVVARDGTRYSYIVWMDTESKLPMRVDLLDRDGETLEQFRVIAFNVNQDISSSMQTLAKANLPPLLSVPVGEKAKFSWTPTWLPQGFSEVSSSRRPLPTMDNMPAASRLYSDGLFSFSVNVNRATPSSTDQMLRTGRRTVSTSVRDNAEITIVGELPPQTAKRIAENIKFGAAQ [I249A;E250A]
decreasing interaction	MKQLWFAMSLVTGSLLFSANASATPASGALLQQMNLASQSLNYELSFISINKQGVESLRYRHARLDNRPLAQLLQMDGPRREVVQRGNEISYFEPGLEPFTLNGDYIVDSLPSLIYTDFKRLSPYYDFISVGRTRIADRLCEVIRVVARDGTRYSYIVWMDTESKLPMRVDLLDRDGETLEQFRVIAFNVNQDISSSMQTLAKANLPPLLSVPVGEKAKFSWTPTWLPQGFSEVSSSRRPLPTMDNMPAESRLYSDGLFSFSVNVNRATPSSTDQMLRTGRRTVSTSVRDNAEITIVGELPPQTAKRIAENIKFGAAQ [I249A]
